This note sets out measurements from US20200340992, “DNA APTAMER […] BINDING TO ESAT6, AND USE […]” (MD APTUS INC., published 2020).

Broadly, the Kd is the constant that tells how readily two partners part at equilibrium. A low value points to tighter binding.

The target in data set [1] is ESAT6 (early secretory antigenic target 6 kDa) (Mycobacterium tuberculosis H37Rv, UniProt P9WNK7 P9WNK7:1-95). Put plainly: fluorescence of Cy3-aptamer bound to ESAT6 on magnetic beads; 20 mM Tris, 50 mM NaCl, 5 mM KCl, 5 mM MgCl2, pH 8.0. The conditions noted are these: label: Cy3. On the procedure:
400 pmole of ESAT6 was mixed with 10 μL of magnetic beads, and then incubated in 100 μL of a binding buffer (20 mM Tris, 50 mM NaCl, 5 mM KCl, 5 mM MgCl₂, pH 8.0) for 1 hour. To separate unbound ESAT6, washing was performed twice with a binding buffer. Subsequently, the resulting mixture was incubated together with various concentrations of a Cy3-labeled aptamer, and an unbound aptamer was removed by washing. The amount of Cy3-labeled ssDNA aptamer bound to the magnetic beads with ESAT6 immobilized thereon was measured by fluorescence measurement (1420 Victor Multilabel counter, PerkinElmer, USA) by separating only Cy3-labeled ssDNA bound to ESAT6. As a result, as shown in FIG. 3 and Table 2 below, the Kd value of the DNA aptamer having a EG11(44) base sequence was measured.

In another data set the target is CFP-10 (UniProt P9WNK5 P9WNK5:1-100). Description: electrochemical impedance specificity test; 10 pM protein in PBS. The text has this:
(§1) At this time, each protein was mixed at a concentration of 10 pM with PBS and used for detection.

Another data set concerns the target T1, TB7.7 (UniProt P9WJ11 P9WJ11:1-81).
T1 sequence: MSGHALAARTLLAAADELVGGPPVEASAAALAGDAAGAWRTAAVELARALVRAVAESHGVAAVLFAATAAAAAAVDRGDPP
The description is as above.
From the text: as §1

ESAT6 (early secretory antigenic target 6 kDa), sequence (P9WNK7 whole entry, one chain of several): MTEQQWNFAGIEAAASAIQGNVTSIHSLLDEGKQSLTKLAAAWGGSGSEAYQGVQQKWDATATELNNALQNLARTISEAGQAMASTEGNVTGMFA
CFP-10, sequence (P9WNK5 whole entry, one chain of several): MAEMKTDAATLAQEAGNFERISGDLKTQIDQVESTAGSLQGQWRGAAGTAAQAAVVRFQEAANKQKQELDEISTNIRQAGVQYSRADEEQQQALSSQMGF

In data set [1], CGAGGTAGCTTACCCGCTTATGTTCACTGTGGGTTGCTGGCTCG (ssDNA) [EG11(44)] yielded a Kd of 31.4 nM.

As for CGAGGTAGCTTACCCGCTTATGTTCACTGTGGGTTGCTGGCTCG (ssDNA) [EG11(44) unlabelled], the binding result in the data set with CFP-10 and with TB7.7 was “no binding” each time.
